Consider two molecules from US8497072.

The target of this experiment is soluble amyloid precursor protein alpha (UniProt P05067). In words: sandwich ELISA, EC50 of this antigen divided by EC50 of Aβ(1-42) globulomer.

B1: monoclonal antibody 8C5 (antibody, V domains shown)
VH: EVQLVESGGGLVQPGGSLKLSCTASGFTFSSYGMSWVRQTPDKRLELVASIKNNGGSTYYPDSLKGRFTISRDNAKNTLYLQMSSLKSEDTAMYYCASGDYWGQGTTLTVSS
VL: DVVMTQTPLSLPVSLGDQASISCRSSQSLVHSNGDTFLHWYLQKPGQSPKLLIYKVSNRFSGVPDRFSGSGSGTDFTLKISRVEAEDLGIYFCSQSIHVPWTFGGGTKLEIKR
In the case of B1, the selectivity factor (EC50 ratio against Aβ(1-42) globulomer) was above 100 fold.

B2: monoclonal antibody 8F5 (antibody, V domains shown)
VH: EVQLVESGGGLVQPGGSLKLSCAASGFTFSSYGMSWVRQTPDKRLELVASINSNGGSTYYPDSVKGRFTISRDNAKNTLYLQMSSLKSEDTAMYYCASGDYWGQGSTLTVSS
VL: DVVMTQTPLSLPVSLGDQASISCRSSQSLVYSNGDTYLHWYLQKPGQSPKLLIYKVSNRFSGVPDRFSGSGSGTDFTLKISRVEAEDLGVYFCSQSTHVPWTFGGGTKLEIKR
As for B2, the selectivity factor (EC50 ratio against Aβ(1-42) globulomer) was above 100 fold.
